Experimental data reported in PMC11076338, “ACRE, a class of AP2/ERF transcription factors, activates the expression of sweet potato ß-amylase and sporamin genes through the sugar-responsible element CMSRE-1”.

Tests used:
Assay in all cases: EMSA; EMSA: 15 mM HEPES-KOH pH 7.5, 25 mM KCl, 0.25 mM EDTA, 6% glycerol, 2 mM DTT, 20 fmol probe (Methods print 20 fg), 0.2-0.8 ug protein, room temperature 30 min
Conditions in all cases: protein: recombinant; tags: MBP (N-terminal); label: biotin as probe
[1] = target: T1, ACRE2 (ERF017) (Arabidopsis thaliana, UniProt Q84QC2 1-185)
T1 sequence: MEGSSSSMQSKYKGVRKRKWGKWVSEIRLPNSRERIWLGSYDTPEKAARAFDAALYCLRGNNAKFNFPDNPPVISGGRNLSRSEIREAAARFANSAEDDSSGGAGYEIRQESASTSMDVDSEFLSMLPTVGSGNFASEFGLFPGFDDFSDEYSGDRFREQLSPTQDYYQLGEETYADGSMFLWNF

[2] = target: T2, ACRE1 (Arabidopsis thaliana, UniProt Q9C591 1-216)
T2 sequence: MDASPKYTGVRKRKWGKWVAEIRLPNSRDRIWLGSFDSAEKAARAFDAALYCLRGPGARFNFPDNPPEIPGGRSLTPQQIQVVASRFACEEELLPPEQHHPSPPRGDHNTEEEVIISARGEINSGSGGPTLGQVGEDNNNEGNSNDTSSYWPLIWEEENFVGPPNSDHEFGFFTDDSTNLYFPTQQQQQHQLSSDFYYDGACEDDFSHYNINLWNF

[3] = target: T3, ORA47/ACRE3 (ERF018) (Arabidopsis thaliana, UniProt Q9S7L5 1-195)
T3 sequence: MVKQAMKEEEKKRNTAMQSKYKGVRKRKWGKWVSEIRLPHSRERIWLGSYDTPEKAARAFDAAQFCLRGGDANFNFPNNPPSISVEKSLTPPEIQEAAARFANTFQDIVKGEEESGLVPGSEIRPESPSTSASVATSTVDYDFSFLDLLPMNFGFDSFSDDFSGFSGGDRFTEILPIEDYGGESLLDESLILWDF

Measured: binding result

B1: SPO (dsDNA)
DNA 1: CTAGTACACTTGGACGGCCACAT
DNA 2: ATGTGGCCGTCCAAGTGTACTAG
binds: all assays above

B2: DRE (dsDNA)
DNA 1: TCGAGTAAATCATGTCGGTTGAAAG
DNA 2: CTTTCAACCGACATGATTTACTCGA
binds: all assays above

B3: BA (dsDNA)
DNA 1: CTAGTCTTAATGGACGGTATTGT
DNA 2: ACAATACCGTCCATTAAGACTAG
binds: all assays above
